Test results reported in US20230063116A1 (Regeneron, published 2023).
Read-outs that look alike come from different tables or passages of the source.

T1: VEGF121 (hVEGF121, aa 207-327) (human, UniProt P15692 207-327)
T1 chain: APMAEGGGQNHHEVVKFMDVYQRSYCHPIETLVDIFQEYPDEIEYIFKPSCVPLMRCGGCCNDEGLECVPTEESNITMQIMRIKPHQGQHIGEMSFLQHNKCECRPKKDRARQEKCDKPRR

T2: VEGF110 (hVEGF110, aa 207-318) (human, UniProt P15692 207-318)
T2 sequence (looked up): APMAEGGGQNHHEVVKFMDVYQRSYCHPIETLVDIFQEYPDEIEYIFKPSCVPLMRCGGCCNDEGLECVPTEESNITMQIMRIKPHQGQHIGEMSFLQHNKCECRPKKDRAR

B1: REGN7851 (VEGF mini-trap-hFc …) (receptor)
chain: SDTGRPFVEMYSEIPEIIHMTEGRELVIPCRVTSPNITVTLKKFPLDTLIPDGKRIIWDSRKGFIISNATYKEIGLLTCEATVNGHLYKTNYLTHRQTNTIIDVVLSPSHGIELSVGEKLVLNCTARTELNVGIDFNWEYPSSKHQHKKLVNRDLKTQSGSEMKKFLSTLTIDGVTRSDQGLYTCAASSGLMTKKNSTFVRVHEKDKTHTCPPCPPCPPC
notes: Recombinant homodimer; also called REGN7851 (CPPCPPCPPC)
B2: REGN7080 (VEGF minitrap-G4Sx6-VEGF minitrap mmH) (receptor)
chain: SDTGRPFVEMYSEIPEIIHMTEGRELVIPCRVTSPNITVTLKKFPLDTLIPDGKRIIWDSRKGFIISNATYKEIGLLTCEATVNGHLYKTNYLTHRQTNTIIDVVLSPSHGIELSVGEKLVLNCTARTELNVGIDFNWEYPSSKHQHKKLVNRDLKTQSGSEMKKFLSTLTIDGVTRSDQGLYTCAASSGLMTKKNSTFVRVHEKGGGGSGGGGSGGGGSGGGGSGGGGSGGGGSSDTGRPFVEMYSEIPEIIHMTEGRELVIPCRVTSPNITVTLKKFPLDTLIPDGKRIIWDSRKGFIISNATYKEIGLLTCEATVNGHLYKTNYLTHRQTNTIIDVVLSPSHGIELSVGEKLVLNCTARTELNVGIDFNWEYPSSKHQHKKLVNRDLKTQSGSEMKKFLSTLTIDGVTRSDQGLYTCAASSGLMTKKNSTFVRVHEKEQKLISEEDLGGEQKLISEEDLHHHHHH
notes: Monomeric single chain; also called REGN7080 (G4Sx6 linker); single chain mini-trap with (G4S)6 linker and C-terminal mmH tag
B3: REGN6824 (hVEGF minitrap-G4Sx3-hVEGF minitrap-mmH) (receptor)
chain: SDTGRPFVEMYSEIPEIIHMTEGRELVIPCRVTSPNITVTLKKFPLDTLIPDGKRIIWDSRKGFIISNATYKEIGLLTCEATVNGHLYKTNYLTHRQTNTIIDVVLSPSHGIELSVGEKLVLNCTARTELNVGIDFNWEYPSSKHQHKKLVNRDLKTQSGSEMKKFLSTLTIDGVTRSDQGLYTCAASSGLMTKKNSTFVRVHEKGGGGSGGGGSGGGGSSDTGRPFVEMYSEIPEIIHMTEGRELVIPCRVTSPNITVTLKKFPLDTLIPDGKRIIWDSRKGFIISNATYKEIGLLTCEATVNGHLYKTNYLTHRQTNTIIDVVLSPSHGIELSVGEKLVLNCTARTELNVGIDFNWEYPSSKHQHKKLVNRDLKTQSGSEMKKFLSTLTIDGVTRSDQGLYTCAASSGLMTKKNSTFVRVHEKEQKLISEEDLGGEQKLISEEDLHHHHHH
notes: Monomeric single chain; also called REGN6824 (G4Sx3 linker); single chain mini-trap with (G4S)3 linker and C-terminal mmH tag
B4: REGN7991 (hVEGF minitrap-G4Sx9-hVEGF minitrap) (receptor)
chain: SDTGRPFVEMYSEIPEIIHMTEGRELVIPCRVTSPNITVTLKKFPLDTLIPDGKRIIWDSRKGFIISNATYKEIGLLTCEATVNGHLYKTNYLTHRQTNTIIDVVLSPSHGIELSVGEKLVLNCTARTELNVGIDFNWEYPSSKHQHKKLVNRDLKTQSGSEMKKFLSTLTIDGVTRSDQGLYTCAASSGLMTKKNSTFVRVHEKGGGGSGGGGSGGGGSGGGGSGGGGSGGGGSGGGGSGGGGSGGGGSSDTGRPFVEMYSEIPEIIHMTEGRELVIPCRVTSPNITVTLKKFPLDTLIPDGKRIIWDSRKGFIISNATYKEIGLLTCEATVNGHLYKTNYLTHRQTNTIIDVVLSPSHGIELSVGEKLVLNCTARTELNVGIDFNWEYPSSKHQHKKLVNRDLKTQSGSEMKKFLSTLTIDGVTRSDQGLYTCAASSGLMTKKNSTFVRVHEK
notes: Monomeric single chain, no tag; also called REGN7991 (G4Sx9 linker); single chain mini-trap with (G4S)9, no tag
B5: REGN7483^F (homodimer mini-trap, FabRICATOR cleaved from aflibercept) (receptor)
chain: SDTGRPFVEMYSEIPEIIHMTEGRELVIPCRVTSPNITVTLKKFPLDTLIPDGKRIIWDSRKGFIISNATYKEIGLLTCEATVNGHLYKTNYLTHRQTNTIIDVVLSPSHGIELSVGEKLVLNCTARTELNVGIDFNWEYPSSKHQHKKLVNRDLKTQSGSEMKKFLSTLTIDGVTRSDQGLYTCAASSGLMTKKNSTFVRVHEKDKTHTCPPCPAPELLG
modifications: N-linked glycans at N36, N68, N123, N196 (Table C)
notes: Disulfide-linked homodimer made by IdeS cleavage of aflibercept; also called dimer mini-trap from FabRICATOR (IdeS) cleavage of REGN3
B6: REGN7483^R (homodimer mini-trap, recombinant) (receptor)
chain: SDTGRPFVEMYSEIPEIIHMTEGRELVIPCRVTSPNITVTLKKFPLDTLIPDGKRIIWDSRKGFIISNATYKEIGLLTCEATVNGHLYKTNYLTHRQTNTIIDVVLSPSHGIELSVGEKLVLNCTARTELNVGIDFNWEYPSSKHQHKKLVNRDLKTQSGSEMKKFLSTLTIDGVTRSDQGLYTCAASSGLMTKKNSTFVRVHEKDKTHTCPPCPAPELLG
modifications: N-linked glycans at N36, N68, N123, N196 (Table C)
notes: also called Recombinant dimer mini-trap
B7: REGN7992 (hVEGF minitrap-G4Sx12-hVEGF minitrap) (receptor)
chain: SDTGRPFVEMYSEIPEIIHMTEGRELVIPCRVTSPNITVTLKKFPLDTLIPDGKRIIWDSRKGFIISNATYKEIGLLTCEATVNGHLYKTNYLTHRQTNTIIDVVLSPSHGIELSVGEKLVLNCTARTELNVGIDFNWEYPSSKHQHKKLVNRDLKTQSGSEMKKFLSTLTIDGVTRSDQGLYTCAASSGLMTKKNSTFVRVHEKGGGGSGGGGSGGGGSGGGGSGGGGSGGGGSGGGGSGGGGSGGGGSGGGGSGGGGSGGGGSSDTGRPFVEMYSEIPEIIHMTEGRELVIPCRVTSPNITVTLKKFPLDTLIPDGKRIIWDSRKGFIISNATYKEIGLLTCEATVNGHLYKTNYLTHRQTNTIIDVVLSPSHGIELSVGEKLVLNCTARTELNVGIDFNWEYPSSKHQHKKLVNRDLKTQSGSEMKKFLSTLTIDGVTRSDQGLYTCAASSGLMTKKNSTFVRVHEK
notes: Monomeric single chain, no tag; also called REGN7992 (G4Sx12 linker); single chain mini-trap with (G4S)12, no tag
B8: REGN7850 (VEGF mini-trap-hFc …) (receptor)
chain: SDTGRPFVEMYSEIPEIIHMTEGRELVIPCRVTSPNITVTLKKFPLDTLIPDGKRIIWDSRKGFIISNATYKEIGLLTCEATVNGHLYKTNYLTHRQTNTIIDVVLSPSHGIELSVGEKLVLNCTARTELNVGIDFNWEYPSSKHQHKKLVNRDLKTQSGSEMKKFLSTLTIDGVTRSDQGLYTCAASSGLMTKKNSTFVRVHEKDKTHTCPPCPPC
notes: Recombinant homodimer; also called REGN7850 (CPPCPPC)

Columns and labels:
[1] = target: T1, VEGF121 (hVEGF121, aa 207-327); test: cell-based or functional assay
human VEGF165 (REGN110) [2] = target: T3, human VEGF165 (REGN110) (human, UniProt P15692 207-395); test: cell-based or functional assay
Target sequence in this assay (P15692 other isoform, or with tags, fused parts or gaps): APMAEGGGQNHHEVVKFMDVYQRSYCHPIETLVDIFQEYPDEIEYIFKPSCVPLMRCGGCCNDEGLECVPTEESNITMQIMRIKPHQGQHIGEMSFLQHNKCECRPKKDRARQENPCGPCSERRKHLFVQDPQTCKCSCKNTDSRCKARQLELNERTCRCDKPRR

[3] = target: T2, VEGF110 (hVEGF110, aa 207-318); test: cell-based or functional assay
human VEGF165 (REGN110) [4] = target: T3, human VEGF165 (REGN110); test: SPR, Biacore, 25 C; trap captured on anti-VEGFR1 mAb surface, hVEGF165 injected
Protocol: (§1) Experimental Procedure. Equilibrium dissociation constants (KD values) for human VEGF₁₆₅ binding to various purified VEGF mini-trap constructs were determined using a real-time surface plasmon resonance biosensor using a Biacore 3000 instrument. All binding studies were performed in 10 mM HEPES, 150 mM NaCl, 3 mM EDTA, and 0.05% v/v Surfactant Tween-20, pH 7.4 (HBS-ET) running buffer at 25° C. The Biacore sensor surface was first derivatized by amine coupling with a monoclonal mouse anti-VEGFR1 antibody to capture VEGF mini-trap constructs. Binding studies were performed on the human VEGF reagent, human VEGF₁₆₅ (human VEGF₁₆₅; SEQ ID NO: 31). Different concentrations of VEGF₁₆₅ reagent, prepared in HBS-ET running buffer (2 nM — 62.5 pM; 2-fold serial dilution for human VEGF₁₆₅), were injected over an anti-VEGFR1-captured VEGF mini-trap construct surface for 1.8 minutes at a flow rate of 90 μL/minute, while the dissociation of VEGF mini-trap constructs bound VEGF₁₆₅ reagent was monitored for 60 minutes in HBS-ET running buffer. Kinetic association (kₐ) and dissociation (kd) rate constants were determined by fitting the real-time sensorgrams to a 1:1 binding model using Scrubber 2.0c curve fitting software. Binding dissociation equilibrium constants (KD) and dissociative half-lives (t½) were calculated from the kinetic rate constants as: […]

human VEGF165 (REGN110) [5] = target: T3, human VEGF165 (REGN110); test: SPR, Biacore, 25 C; trap captured on anti-VEGFR1 mAb surface, hVEGF165 injected; 1:1 fit
Protocol: as §1

[6] = target: T1, VEGF121 (hVEGF121, aa 207-327); test: cell-based or functional assay
[7] = target: T2, VEGF110 (hVEGF110, aa 207-318); test: cell-based or functional assay; remark: listed apart in the source
human VEGF165 (REGN110) [8] = target: T3, human VEGF165 (REGN110); test: SPR, Biacore 3000, 25 C; trap captured on anti-VEGFR1 mAb surface, hVEGF165 injected
human VEGF165 (REGN110) [9] = target: T3, human VEGF165 (REGN110); test: SPR, Biacore 3000, 25 C; trap captured on anti-VEGFR1 mAb surface, hVEGF165 injected; 1:1 fit
[10] = target: T1, VEGF121 (hVEGF121, aa 207-327); test: cell-based or functional assay
[11] = target: T2, VEGF110 (hVEGF110, aa 207-318); test: cell-based or functional assay; remark: listed apart in the source

Row | Binder | IC50 (M), inhibition of VEGFR1 signaling (luciferase), 20 pM VEGF121 [1] | IC50 (M), inhibition of VEGFR1 signaling (luciferase), 20 pM VEGF165 (human VEGF165 (REGN110) [2]) | IC50 (M), inhibition of VEGFR1 signaling (luciferase), 20 pM VEGF110 [3] | 2nM hVEGF165 Bound (human VEGF165 (REGN110) [4]) | Kd (human VEGF165 (REGN110) [5]) | koff (human VEGF165 (REGN110) [5]) | kon (human VEGF165 (REGN110) [5]) | t1/2 (dissociative half-life) (human VEGF165 (REGN110) [5]) | IC50 (M), inhibition of VEGFR1 signaling (luciferase), 20 pM VEGF121 [6] | IC50 (M), inhibition of VEGFR1 signaling (luciferase), 20 pM VEGF110 [7] | 100 nM hVEGF165 Bound (human VEGF165 (REGN110) [8]) | Kd (human VEGF165 (REGN110) [9]) | koff (human VEGF165 (REGN110) [9]) | kon (human VEGF165 (REGN110) [9]) | t½ (dissociative half-life) (human VEGF165 (REGN110) [9]) | IC50 (M), inhibition of VEGFR1 signaling (luciferase), 20 pM VEGF121 [10] | IC50 (M), inhibition of VEGFR1 signaling (luciferase), 20 pM VEGF110 [11]
1 | B1 | 1.83e-11 M | 2.68e-11 M | 1.45e-11 M | 51 RU | 0.00181 nM | ≥ 1e-05 s⁻¹ | 5.51e+06 M⁻¹ s⁻¹ | ≥ 19.2 h |  |  |  |  |  |  |  |  | 
2 | B2 |  |  |  | 36 RU | 0.0715 nM | 0.000387 s⁻¹ | 5.41e+06 M⁻¹ s⁻¹ | 0.497 h | 1.66e-10 M | 1.61e-10 M | 36 RU | 0.0715 nM | 0.000387 s⁻¹ | 5.41e+06 M⁻¹ s⁻¹ | 0.497 h |  | 
3 | B3 |  |  |  | 33 RU | 0.0861 nM | 0.000554 s⁻¹ | 6.44e+06 M⁻¹ s⁻¹ | 0.348 h | 2.44e-10 M | 2.22e-10 M | 33 RU | 0.0861 nM | 0.000554 s⁻¹ | 6.44e+06 M⁻¹ s⁻¹ | 0.348 h |  | 
4 | B4 |  |  |  | 40 RU | 0.0138 nM | 9.79e-05 s⁻¹ | 7.1e+06 M⁻¹ s⁻¹ | 1.97 h |  |  |  |  |  |  |  | 7.71e-11 M | 7.88e-11 M
5 | B5 |  | 1.23e-11 M | 1.04e-11 M |  | 0.00132 nM | ≥ 1e-05 s⁻¹ | 7.59e+06 M⁻¹ s⁻¹ | ≥ 19.2 h |  |  |  | ≤ 0.00132 nM | ≤ 1e-05 s⁻¹ | 7.58e+06 M⁻¹ s⁻¹ | ≥ 19.2 h |  | 
6 | B6 |  | 1.92e-11 M | 1.3e-11 M |  | 0.00159 nM | ≥ 1e-05 s⁻¹ | 6.3e+06 M⁻¹ s⁻¹ | ≥ 19.2 h |  |  |  | ≤ 0.00158 nM | ≤ 1e-05 s⁻¹ | 6.3e+06 M⁻¹ s⁻¹ | ≥ 19.2 h |  | 
7 | B7 |  |  |  | 22 RU | 0.0153 nM | 9.7e-05 s⁻¹ | 6.3e+06 M⁻¹ s⁻¹ | 1.98 h |  |  |  |  |  |  |  | 2.37e-11 M | 3.42e-11 M
8 | B8 | 1.66e-11 M | 2.99e-11 M | 1.22e-11 M | 56 RU | 0.00155 nM | ≥ 1e-05 s⁻¹ | 6.46e+06 M⁻¹ s⁻¹ | ≥ 19.2 h |  |  |  |  |  |  |  |  | 
